Source: PMC10348681, “Reversible phase separation of ESCRT protein ALIX through tyrosine phosphorylation” (Science Advances, 2023)
Where a chain is given by its changes, count along the chain named. In names and notes the source's numbering stands. Values belong to the binder of their own block, whether it stands above or below them.

Legend:
Conditions in all cases: both partners purified
[1] = molecular target: T1, ALIX-Bro1 (Bro1 domain of ALIX) (UniProt Q8WUM4 3-392); assay: ITC; 300 to 500 μM CHMP4 construct injected into 30 to 50 μM ALIX1-868* Strep or Bro1 in the cell; 25°C; 20 mM sodium phosphate (pH 6.5), 1 mM TCEP, 2 mM EDTA; independent site binding model
T1 construct: Bro1 domain of ALIX; residues up to 349 are spoken of
T1 sequence (looked up): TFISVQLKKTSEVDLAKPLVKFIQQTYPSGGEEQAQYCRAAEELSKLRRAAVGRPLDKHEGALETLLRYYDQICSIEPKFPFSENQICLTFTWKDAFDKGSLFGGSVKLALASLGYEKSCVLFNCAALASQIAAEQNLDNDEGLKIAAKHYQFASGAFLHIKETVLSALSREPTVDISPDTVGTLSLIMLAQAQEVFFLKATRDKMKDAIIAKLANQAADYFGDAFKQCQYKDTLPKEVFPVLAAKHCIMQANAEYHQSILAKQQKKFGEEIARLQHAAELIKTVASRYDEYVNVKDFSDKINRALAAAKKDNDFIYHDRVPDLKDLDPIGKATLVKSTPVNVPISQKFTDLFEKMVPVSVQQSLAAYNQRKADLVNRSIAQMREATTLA

[2] = molecular target: T2, ALIX1−868∗^Strep (full-length ALIX with P801G and a C-terminal strep tag) (UniProt Q8WUM4 1-868, P801G); assay: as above
T2 construct: the asterisk denotes P801G; Monomeric by AUC; source: E. coli, purified (Strep-Tactin Sepharose, Q-Sepharose HP, Superdex 200); not shown: Strep tag, C-terminal, kept
T2 sequence (looked up): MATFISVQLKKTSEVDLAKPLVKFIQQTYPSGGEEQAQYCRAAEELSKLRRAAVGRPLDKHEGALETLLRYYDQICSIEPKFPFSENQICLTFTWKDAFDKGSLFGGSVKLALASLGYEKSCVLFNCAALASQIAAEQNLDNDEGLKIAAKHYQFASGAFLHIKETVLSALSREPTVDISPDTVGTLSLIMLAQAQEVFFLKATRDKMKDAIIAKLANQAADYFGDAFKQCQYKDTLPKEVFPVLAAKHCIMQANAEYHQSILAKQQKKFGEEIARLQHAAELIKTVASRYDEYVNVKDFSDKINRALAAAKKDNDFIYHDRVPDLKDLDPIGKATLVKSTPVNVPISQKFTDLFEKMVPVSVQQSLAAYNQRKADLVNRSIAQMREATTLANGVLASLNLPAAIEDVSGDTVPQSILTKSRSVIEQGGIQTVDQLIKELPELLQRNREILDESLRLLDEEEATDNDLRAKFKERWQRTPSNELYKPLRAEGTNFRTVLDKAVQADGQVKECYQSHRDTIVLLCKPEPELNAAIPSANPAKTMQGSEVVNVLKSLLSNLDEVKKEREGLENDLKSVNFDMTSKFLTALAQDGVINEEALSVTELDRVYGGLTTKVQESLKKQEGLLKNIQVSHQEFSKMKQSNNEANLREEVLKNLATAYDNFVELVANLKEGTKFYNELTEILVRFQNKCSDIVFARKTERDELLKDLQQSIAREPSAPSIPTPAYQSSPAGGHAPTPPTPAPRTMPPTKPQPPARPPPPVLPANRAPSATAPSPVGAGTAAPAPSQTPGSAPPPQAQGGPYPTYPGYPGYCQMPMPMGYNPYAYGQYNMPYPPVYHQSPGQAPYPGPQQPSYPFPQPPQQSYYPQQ

[3] = molecular target: T2, ALIX1−868∗^Strep (full-length ALIX with …); assay: NMR titration; 30 μM 15N/2H-labeled CHMP4 construct with 90 μM unlabeled ALIX1-868* Strep; cross-peak heights; 30°C, 20 mM sodium phosphate (pH 6.5), 1 mM TCEP, 2 mM EDTA
[4] = molecular target: T2, ALIX1−868∗^Strep (full-length ALIX with …); assay: ITC; as the other ITC but with 150 mM NaCl; CHMP4C construct injected into ALIX1-868* Strep; 25°C; for the AAA mutant 1500 μM into 300 μM ALIX

Kd [1]: 1000 ± 200 nM
Kd [2]: 900 ± 100 nM
stoichiometry N [2]: ~1
B1: CHMP4B121−224^S184C (domain or fragment, UniProt Q9H444 121-224, looked up)
chain: DNMDIDKVDELMQDIADQQELAEEISTAISKPVGFGEEFDEDELMAELEELEQEELDKNLLEICGPETVPLPNVPSIALPSKPAKKKEEEDDDMKELENWAGSM
notes: codon-optimized synthetic gene; Monomeric by AUC; also called charged multivesicular body protein 4B C-terminal fragment; not shown: GB1, N-terminal, cleaved

binding result [3]: binds
B2: CHMP4C121−233^S191C,AAA (domain or fragment, UniProt Q96CF2 121-233, looked up)
chain: ENMDLNKIDDLMQEITEQQDIAQEISEAFSQRVGFGDDFDEDELMAELEELEQEELNKKMTNIRLPNVPSCSLPAQPNRKPGMSSTARRSRAASSQRAEEEDDDAKQAAAAAT
notes: codon-optimized synthetic gene; also called CHMP4C with three alanine substitutions in its α6 motif (I225A, L228A, W231A); not shown: GB1, N-terminal, cleaved

Kd [1]: 900 ± 100 nM
Kd [2]: 600 ± 100 nM
stoichiometry N [2]: ~1
Kd [4]: 6100 ± 700 nM
B3: CHMP4C121−233^S191C (domain or fragment, UniProt Q96CF2 121-233, looked up)
chain: B2 chain with A105I, A108L, A111W
notes: codon-optimized synthetic gene; Monomeric by AUC; also called charged multivesicular body protein 4C C-terminal fragment; not shown: GB1, N-terminal, cleaved
